Settings: Kitasatospora aureofaciens; pH 7; Thermal; DSC; PIPES 0.03 M; reversible: yes (90-95%); whole UniProt chain shown

B1: Guanyl-specific ribonuclease Sa wild type, P05798 (protein)
chain: DVSGTVCLSALPPEATDTLNLIASDGPFPYSQDGVVFQNRESVLPTQSYGYYHEYTVITPGARTRGTRRIITGEATQEDYYTGDHYATFSLIDQTC
Tm: 49 °C
unfolding enthalpy (calorimetric): 92 kcal/mol
unfolding enthalpy (van 't Hoff): 103 kcal/mol
